Reference: the domain aggregation screens of Martell et al. (2025)

Assay: soluble fraction after stress (log2 fold change); higher = more stays soluble; pooled small domains, quantitative proteomics
Conditions: stress: 50 degC
How it was run: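 Pooled custom libraries of small protein domains were each held under stress at 50°C. The read-out, high-throughput quantitative proteomics, tracked how much of each protein stayed soluble. This is reported as a base-two log fold change used to indicate aggregation propensity. Higher values mean more protein remains in solution.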

Row | Sequence | soluble fraction (log2)
1 | HMKVEFTPAYLKKFKANKNAWKFYEAQTNTYKKQSAWYVISAKQEETRLRRLDLLIYDSENGIHIKPLRR | -2.6
2 | HMNGDYFEYRYAVNGSRSTPPSLSKTSRNPSGWSTTVPTVGNLQYLWFTVAKINGETNSLIQNWSTPARQT | -0.13
3 | HMTRQKEAILALLTDSRGEALSASELLARLTRSGSSIGRTTVYRLLSQLVDDGVVRAWRDASRGITLYELS | -0.113
4 | HMSEEVKSQPISILDLSTRASNGLKNEGIETIGELVKYSEDELLGLDKFGQNSLKEIKKKLEEIGLTLKEH | -0.0419
5 | HMDLPAEFSKPELETLFKRGKQSGELSLTEVRDALEAAQLPNKKTQTKVLKVLSDNAIHVLMDG | 0.146
6 | HMSGKMTVPNVVGKTETEAKSALSAKGFTNVRTETVDSTEAAGTVVKQSLDADSVQDPKTEIVLSVSNG | 0.608
7 | HMNPDDEMLLTYLTKLLVDKQFIVNSNDIFEYILRRVDRTYDGIYDIVSKLDVLSLEKKRQLTIPLIKEI | 0.0226
8 | HMKLTKPKLIQLIHIAKSKLNMDELSYRVLLDNLTGKTSTTKMTVGELLKVYESMKDKGFKPQV | -0.166
9 | HMNENFPYRLKEMVVVQSRTWPGINKPGGVGQVMKINPEAGTVNVKYVLGGSEKNIELKYVTSNDLNSK | -0.536
10 | HMSENLESEFFGIVVITQTLLQKELRDKPMTVELIRKTVEDVMSKHYSDSSVDKAKVEEELIRRFSTW | -0.164
11 | HMVTKTTYAYERLKREIMDGTLGQGEKLVVNAISQRYQVSPMPIREALLKLEQEGLVQSAPHRGAWVHK | -0.345
12 | HMGLPLETVVTHATKLEIVRDGRVSGSIGLSAGVKVDVIALEGDNLQVRYRSLSGRVPVAHTGLAALA | 0.105
13 | HMNNIIEQIKADIKKLEEKLDKSSENALNKLEKDYSSLSTESKKKLDDAGYGARIKALRVKFAALSTQ | 0.0666
14 | HMNYTQAQIDRANAVSLEDFLRTQGETLIKSGREYRWKEHDSLTVRGNKWFRHSQSKGGYPIDFVMEFTA | 0.0368
15 | HMGPEAFPVPYVVDIELDRAIYVIEQSGFIVGQKLEANDNNVPRGFVISQNPPAGTKLGPESIVDLVVSS | -0.519
16 | HMSYEDLIQAVSGHFGIEIRALLSEDRKKENMIPRQVAMYLLKNKLHYTYERIGNIFSGRNHTAVMYSV | -0.193
17 | HMEQFDFTILRELRKRAGLSIGEVSAESGVSAAVISKLERNRTRAELDTLYRLARVFGITAAELLNLAEA | -2.06
18 | HMGKSKAAQSSLVRSIMHQISDKNRGPMPLSEIIDRASIQSIDEAIVRSLVSRMKEQGEIYEPSLGTYEF | -0.209
19 | HMYKIDFAEGDRVIIKGGAFSGLRATVVSLHPEKGMAKIKVYMFGDRETLVDIEVSQLEKDK | -0.348
20 | HMRSDHVFTSHLARRDKYISELESLSDSARDDHIQTIKEEDEYLLKYRRTRNLFGIPLNDEMKQFEPFNY | -0.131
21 | HMAANKIDEDRNTELLQVIQNKFPDADAATKKSVKEIMKEHDIPNFKNADDIPTAVLEQIVKVLNQ | 0.323
22 | HMTTMTTGQRIAAKRKEQGLSQENLGEQLGVSRQAIYKWESDASLPDIDKLIALSRLFGVSTDYLLLE | -0.41
23 | HMSEPTLESLRAEGAHHYDPARFHYLEVLARRMPGQHAAVQQVLASRLREAVAAYAGRRSLI | -0.126
24 | HMYDASELNKALEEAKKLDLNNYTEESSEALKNAISKAEEALLSKDKETINSALEELNKAMDSL | 0.112
25 | HMQENKVLEGKVLEKKKKKVFVDLSPFGVGVIRGVNYLEAKNELKDIEEGDNIKVRVLEIDNENGFIELAL | 0.271

Row | Sequence | soluble fraction (log2)
26 | HMSNVIYFNYNDYKFLFMGDAGVDKETDILEKYTLSNIDFLKVGHHGSDTSSNKGFIDSIQPKYSLIS | -1.07
27 | HMQEESISWKEFLELDIIGDKKKRLKVYDLFHLGYGNAKTLFKRLNMVGISREMIEKELENEGY | -1.32
28 | HMVSATKAFVNGGNIVVSSPKATRVAVYNVAGQKVAEQAFAGKATIKASDFAKGIYVLKFNDNTVLKLT | -0.518
29 | HMPKIPRLTLTETAGIMGVSQRALALAIQQGMYSWAQALPGRNKKRPIYFINAITFAKAQGIDLEEYK | -1.11
30 | HMKPFSLESYKAFVVKRLGLFPETSSAQMHDWLKEEYPDFPLITPRTVYNFVMKIRQDYGIAKV | -3.66
31 | HMGGTATDYYNQGRTAYDVGDYNGALMNFQEAVRLDPRYGEAYYGLGKAYEALNMQNQALDAYLSAI | -0.16
32 | HMVQDDDPNSVAKFIDQVIESNPEQVEQYRSGKEKVFNFFLGQTMRLSKGKANPDLVSELLKEKLS | 0.0395
33 | HMDIVIPIQVKNVSSGEVLDFPSIRAAARDLKFPKTTISLGVRYAGEKAYKGFVMRYRSDDPWPIVQES | -1.93
34 | HMAGDDEIEKIAQDILAAWPDKVAAYQAGNKGLMGLFMGELMKKSQGKANPKVASGIIQKLLD | 0.0445
35 | HMERMTSTEILTRDFLTTNSKIVKKSTIEELSEIIHVSPATIIRTVKKMGYSGFSEYKNELINQ | -0.06
36 | HMGHRQRRARARNRSMLEDIPGLGPKRRQQLLRQFGGLPQLMRAGVAELSQVPGISDSLARKIHAELHPES | -1.77
37 | HMPKMDGLTVMEQVNQDHFVNKRPYFIVITAVGQEKITEDAFNKGANYYVMKPFNNNMLLERIKSVRK | 0.294
38 | HMHPNPLTEQEIAVLKGIAQGLSNQEIADQLYLSNGTVRNYVTNILSKLDAGNRTEAANIAKESGW | 0.143
39 | HMEPDDLTVIKGIGPVAAKDLNEQGIITFAQLAKLSDKDVAKIDEHMPFSADQIKDWREQAKELAK | 0.263
40 | HMLDSGNPILPYKLSLLANVDIRTVRNAISAGELVAFKSEFDGEVYVENGSARRWLHGRRGFKPTLK | -0.84
41 | HMEKEEELNSIRPDLDGNDIMEILGVPAGPKVGKAYNYLLNVRLDEGPLSRAEAISRLEAWWENQ | -0.368
42 | HMEKYIVEAEEQGKRLDMYISSKDEELTRTSAQRLIEQGDILVNNKKVKVAYKVSEGDIIAVEKQ | 0.0849
43 | HMTPESSLHSGLGKILHDALTAKIQLTNFEAKFLSDMQSKYDLNGSFSWLSSKQQTTLEKILAKYGR | -0.841
44 | HMELQYSQEIEEAQKILENLGLYRGEIDGINGINTKSAIREFQRKSGLVVDGILGPNTTNALSKGSDAYIT | 0.094
45 | HMDPGPVLISAQVLDDLEAIRRDGSSNMLDWPAVARLAEVMGMDRTAAWVRTHHREYSAGIFRGFASD | -1.68
46 | HMGSIMIIVLKENAPQQAAEKLMKEIRAKGLQIDVSKGTRKTVLGLVGDTSVIDMEHVQGYDYVDKVLRV | 0.0715
47 | HMKRQATLQIGSKRFGMDDLYFKFTVPFEDSEKLGTATIEAYNLSPATRNSIKKGMPIILNAGYEGDI | -0.225
48 | HMKFNLWLSEKLKKLGLTQRKLAEQAGVSPATVSRWLSGEFEPDLTNLRKINQVLGVPERELFLQLGL | 0.154
49 | HMGQELTMPDLKSMSRSNAEEKLKKMGLKLGAVFEENAKEPAGTVINQDPRSGSKITKGQTVDITVSLGEK | 0.131
50 | HMTIQNSILDEIPNIGASRKRAILEAFGSVHRLRKASPEMISAKVEGIGPEMAQAIHDYLVKHPAT | 0.19

Row | Sequence | soluble fraction (log2)
51 | HMNTKDRIKQLAAQRKITIAELERKLHIANGTIGKWDKQNPSIEPLKKLADYFGVTTDYLLGRT | 0.162
52 | HMANIAVTIPTGSSGDRIADILLQAGLIKDKQDFNQAVIAAGAEGKLRAGYFVIPSNATPAEIISILT | -0.695
53 | HMLPSELLAQQRIVVQPGHNLWRIARATYGRGARYTVIYQANREQIADPNRIFPGQVFALPAA | -0.121
54 | HMPAKIIKKSFVYNPIHRDTEYLAQFLQGEGQVSASGDKLVYYGTVEDISRIKSVLQSVDTPS | 0.0363
55 | HMIVNEQEQTFIKAMRDDDFNTILELKMKGYQPSDNVLKSLQPDISSTTFIAAAKIFQMERMLK | 0.218
56 | HMAHYYVRNGYYYYQRRIPLDLRKFYSGANIKASLKTKDPAIAALFVAKFDRQYDAEFAQRRLNPD | -0.482
57 | HMDAQLRVPDLTPYNYSELKENTSLYEGFTIEVVEERSTGDYAAGTVLDQDPKADTLIQDGDSTVIKLVIA | -0.12
58 | HMKKNNTTPIPKTLNYVNIKGLSNEAVERLNKHKPSTLGQASRLEGITPAATSLISIAIKKNQLLEKAES | 0.251
59 | HMQSAEMTLDREGQPVQVRVELTGNEARITFLSDQEQTREALDAGMAQLRELLEQQGMVLAGVTV | -0.0108
60 | HMQQTAEDWKNKGDSLTAQSEYVEAIAAYDEAIRLDPNYAPAWSNKGNALKNLGEYYKAIQAYDEAIRL | 0.198
61 | HMGFSKGKRDLIRMIKLAIRELADDNGRAQIEDVITRLVQEGHSRDEIRLQIDMFLRQGEAMEPKQGIIKL | 0.325
62 | HMPLRPNQRQFIHLMVYQGLDRNEAYAQANNKVLTEENYESIRTAAAKTFYTPHVNNYYHALMEEIRDRE | -0.299
63 | HMVKKYEKVKEYLLERILDGTYVPDLPIPPERELASLLDVNRMTVRRAVEELMYDGYLIRKKGSGTYLTR | -1.57
64 | HMNEQVAVVSGSQVNVRSGPGTTSAVVGQVSKGDNLPVLNQSGDWYQIKLPGGNAGWVAGWLVSLRPTT | -0.0873
65 | HMAENTKKWDETGRRYRSYIKLEKRLSENTVESYMRDYMQFAHFILRQWDVAPHKVEPQMVERYMAWLYER | -0.00858
66 | HMSTFTPYLVKVTTSVLNIRKGAGTNYGTNGSIRDMGTYTIVAEADGQGASKWGKLKSGAGWISLDYTKK | -1.94
67 | HMKQLNKRQDDILSLAEKEGYVSVENLAKTFTVSQQTIRRDINYLSDHEFLVRTHGGAFYSSG | 0.00837
68 | HMDIGKNIQTIRYANKLTQDQVIAKLNLMGISMSKSTYAKLETNRMNIKVSELVALAKIFHTDINAF | -2.43
69 | HMHANAALTPRQRLRLAQKIVDEEWTVAAAADYFRVSWPTAAKWARRYVELGEAGMADRSSRP | -2.1
70 | HMNQSKYQTIADELKSKILSGEYPENTTIPPELQLQKDYQVSRHTIRQAIALLANEGFLRKEKGSGTYVDV | 0.0512
71 | HMKVTTGIDGLIGEEGVALSDFSGKGKIMVHGEIWNAEFSGEVKKGEVLLVEKANGMTLITRKKN | 0.561
72 | HMYSINKTEFGERIKSAREELKMTQTQLAQLLKTSQTTVAKYEHGEQIPRADVLATISKATGKSTDWLLFG | -0.017
73 | HMQIMVVDEADRMLDMGFIPDIERIFQLTPFTRQTLFFSATMAPEIERITDTFLHSPERIEVAR | -0.288
74 | HMGAAVEVISLRYRSAAELLPIVRSLLSTEGKISADERTNSLIIVDSDEAVARVIHSLATLDT | -0.125
75 | HMDVNSRIRQFLKKMKITVQTFESSIGKTNGYIAHTKSPTAGVLAEIAKVYPDLNLDWLITGEGEMLKN | -0.468
